First the molecules themselves.
T1: human calcitonin receptor (human, UniProt P30988 25-474)
T1 sequence (looked up): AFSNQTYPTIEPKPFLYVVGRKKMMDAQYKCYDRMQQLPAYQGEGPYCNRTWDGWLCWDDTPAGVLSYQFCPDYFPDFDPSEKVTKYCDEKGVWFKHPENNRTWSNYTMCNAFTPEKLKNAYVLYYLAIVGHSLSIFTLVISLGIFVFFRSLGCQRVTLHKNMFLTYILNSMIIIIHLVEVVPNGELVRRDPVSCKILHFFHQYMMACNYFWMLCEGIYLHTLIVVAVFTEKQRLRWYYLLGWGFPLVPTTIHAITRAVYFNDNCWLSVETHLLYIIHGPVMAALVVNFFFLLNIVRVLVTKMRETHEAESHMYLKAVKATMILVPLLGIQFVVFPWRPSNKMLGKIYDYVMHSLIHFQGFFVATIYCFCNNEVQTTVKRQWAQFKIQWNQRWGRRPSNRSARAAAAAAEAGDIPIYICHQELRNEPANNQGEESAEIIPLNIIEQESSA

B1: N^ε-[(4S)-4-carboxy-4-(19-carboxynonadecanoylamino)butanoyl]Lys[Arg1,Arg17,Pro21,Pro27,His35]-h-amylin (peptide)
peptide: K([γGlu-C20 diacid])RCNTATCATQRLANFLRHSSPNFGAIPSSTNVGSHTY-NH2
modifications: disulfide 3-8; N-terminus assumed
SMILES: CC[C@H](C)[C@H](NC(=O)[C@H](C)NC(=O)CNC(=O)[C@H](Cc1ccccc1)NC(=O)[C@H](CC(N)=O)NC(=O)[C@@H]1CCCN1C(=O)[C@H](CO)NC(=O)[C@H](CO)NC(=O)[C@H](Cc1c[nH]cn1)NC(=O)[C@H](CCCNC(=N)N)NC(=O)[C@H](CC(C)C)NC(=O)[C@H](Cc1ccccc1)NC(=O)[C@H](CC(N)=O)NC(=O)[C@H](C)NC(=O)[C@H](CC(C)C)NC(=O)[C@H](CCCNC(=N)N)NC(=O)[C@H](CCC(N)=O)NC(=O)[C@@H](NC(=O)[C@H](C)NC(=O)[C@@H]1CSSC[C@H](NC(=O)[C@H](CCCNC(=N)N)NC(=O)[C@@H](N)CCCCNC(=O)CC[C@H](NC(=O)CCCCCCCCCCCCCCCCCCC(=O)O)C(=O)O)C(=O)N[C@@H](CC(N)=O)C(=O)N[C@@H]([C@@H](C)O)C(=O)N[C@@H](C)C(=O)N[C@@H]([C@@H](C)O)C(=O)N1)[C@@H](C)O)C(=O)N1CCC[C@H]1C(=O)N[C@@H](CO)C(=O)N[C@@H](CO)C(=O)N[C@H](C(=O)N[C@@H](CC(N)=O)C(=O)N[C@H](C(=O)NCC(=O)N[C@@H](CO)C(=O)N[C@@H](Cc1c[nH]cn1)C(=O)N[C@H](C(=O)N[C@@H](Cc1ccc(O)cc1)C(N)=O)[C@@H](C)O)C(C)C)[C@@H](C)O
notes: analogue of human amylin, extended by Lys at the N-terminus; also called compound 44
B2: N^-1-[(4S)-4-carboxy-4-(19-carboxynonadecanoylamino)butanoyl]-Gly[Arg1,Arg17,Pro21,Pro27]-h-amylin (peptide)
peptide: {C20 diacid-γGlu}-GRCNTATCATQRLANFLRHSSPNFGAIPSSTNVGSNTY-NH2
modifications: disulfide 3-8
SMILES: CC[C@H](C)[C@H](NC(=O)[C@H](C)NC(=O)CNC(=O)[C@H](Cc1ccccc1)NC(=O)[C@H](CC(N)=O)NC(=O)[C@@H]1CCCN1C(=O)[C@H](CO)NC(=O)[C@H](CO)NC(=O)[C@H](Cc1c[nH]cn1)NC(=O)[C@H](CCCNC(=N)N)NC(=O)[C@H](CC(C)C)NC(=O)[C@H](Cc1ccccc1)NC(=O)[C@H](CC(N)=O)NC(=O)[C@H](C)NC(=O)[C@H](CC(C)C)NC(=O)[C@H](CCCNC(=N)N)NC(=O)[C@H](CCC(N)=O)NC(=O)[C@@H](NC(=O)[C@H](C)NC(=O)[C@@H]1CSSC[C@H](NC(=O)[C@H](CCCNC(=N)N)NC(=O)CNC(=O)CC[C@H](NC(=O)CCCCCCCCCCCCCCCCCCC(=O)O)C(=O)O)C(=O)N[C@@H](CC(N)=O)C(=O)N[C@@H]([C@@H](C)O)C(=O)N[C@@H](C)C(=O)N[C@@H]([C@@H](C)O)C(=O)N1)[C@@H](C)O)C(=O)N1CCC[C@H]1C(=O)N[C@@H](CO)C(=O)N[C@@H](CO)C(=O)N[C@H](C(=O)N[C@@H](CC(N)=O)C(=O)N[C@H](C(=O)NCC(=O)N[C@@H](CO)C(=O)N[C@@H](CC(N)=O)C(=O)N[C@H](C(=O)N[C@@H](Cc1ccc(O)cc1)C(N)=O)[C@@H](C)O)C(C)C)[C@@H](C)O
notes: analogue of human amylin, extended by Gly at the N-terminus; also called compound 46
B3: N^ε1-[2-[2-[2-[[(4S)-4-carboxy-4-(19-carboxynonadecanoylamino)butanoyl]amino]ethoxy]ethoxy]acetyl]-[Arg17,Pro21,Pro27]-h-amylin (peptide)
peptide: K([AEEA-γGlu-C20 diacid])CNTATCATQRLANFLRHSSPNFGAIPSSTNVGSNTY-NH2
modifications: disulfide 2-7; N-terminus assumed
SMILES: CC[C@H](C)[C@H](NC(=O)[C@H](C)NC(=O)CNC(=O)[C@H](Cc1ccccc1)NC(=O)[C@H](CC(N)=O)NC(=O)[C@@H]1CCCN1C(=O)[C@H](CO)NC(=O)[C@H](CO)NC(=O)[C@H](Cc1c[nH]cn1)NC(=O)[C@H](CCCNC(=N)N)NC(=O)[C@H](CC(C)C)NC(=O)[C@H](Cc1ccccc1)NC(=O)[C@H](CC(N)=O)NC(=O)[C@H](C)NC(=O)[C@H](CC(C)C)NC(=O)[C@H](CCCNC(=N)N)NC(=O)[C@H](CCC(N)=O)NC(=O)[C@@H](NC(=O)[C@H](C)NC(=O)[C@@H]1CSSC[C@H](NC(=O)[C@@H](N)CCCCNC(=O)COCCOCCNC(=O)CC[C@H](NC(=O)CCCCCCCCCCCCCCCCCCC(=O)O)C(=O)O)C(=O)N[C@@H](CC(N)=O)C(=O)N[C@@H]([C@@H](C)O)C(=O)N[C@@H](C)C(=O)N[C@@H]([C@@H](C)O)C(=O)N1)[C@@H](C)O)C(=O)N1CCC[C@H]1C(=O)N[C@@H](CO)C(=O)N[C@@H](CO)C(=O)N[C@H](C(=O)N[C@@H](CC(N)=O)C(=O)N[C@H](C(=O)NCC(=O)N[C@@H](CO)C(=O)N[C@@H](CC(N)=O)C(=O)N[C@H](C(=O)N[C@@H](Cc1ccc(O)cc1)C(N)=O)[C@@H](C)O)C(C)C)[C@@H](C)O
notes: analogue of human amylin; also called compound 41
B4: N^ε1-[(4S)-4-carboxy-4-[[(4S)-4-carboxy-4-(19-carboxynonadecanoylamino)butanoyl]amino]butanoyl]-[Asp14,Arg17,Pro21,Pro26,Asp35]-h-amylin (peptide)
peptide: K([γGlu-γGlu-C20 diacid])CNTATCATQRLADFLRHSSPNFGAPLSSTNVGSDTY-NH2
modifications: disulfide 2-7; N-terminus assumed
SMILES: CC(C)C[C@H](NC(=O)[C@H](CCCNC(=N)N)NC(=O)[C@H](CCC(N)=O)NC(=O)[C@@H](NC(=O)[C@H](C)NC(=O)[C@@H]1CSSC[C@H](NC(=O)[C@@H](N)CCCCNC(=O)CC[C@H](NC(=O)CC[C@H](NC(=O)CCCCCCCCCCCCCCCCCCC(=O)O)C(=O)O)C(=O)O)C(=O)N[C@@H](CC(N)=O)C(=O)N[C@@H]([C@@H](C)O)C(=O)N[C@@H](C)C(=O)N[C@@H]([C@@H](C)O)C(=O)N1)[C@@H](C)O)C(=O)N[C@@H](C)C(=O)N[C@@H](CC(=O)O)C(=O)N[C@@H](Cc1ccccc1)C(=O)N[C@@H](CC(C)C)C(=O)N[C@@H](CCCNC(=N)N)C(=O)N[C@@H](Cc1c[nH]cn1)C(=O)N[C@@H](CO)C(=O)N[C@@H](CO)C(=O)N1CCC[C@H]1C(=O)N[C@@H](CC(N)=O)C(=O)N[C@@H](Cc1ccccc1)C(=O)NCC(=O)N[C@@H](C)C(=O)N1CCC[C@H]1C(=O)N[C@@H](CC(C)C)C(=O)N[C@@H](CO)C(=O)N[C@@H](CO)C(=O)N[C@H](C(=O)N[C@@H](CC(N)=O)C(=O)N[C@H](C(=O)NCC(=O)N[C@@H](CO)C(=O)N[C@@H](CC(=O)O)C(=O)N[C@H](C(=O)N[C@@H](Cc1ccc(O)cc1)C(N)=O)[C@@H](C)O)C(C)C)[C@@H](C)O
notes: analogue of human amylin; also called compound 1
B5: N^ε1-[(4S)-4-carboxy-4-[[(4S)-4-carboxy-4-(19-carboxynonadecanoylamino)butanoyl]amino]butanoyl]-[Asp14,Arg17,Pro21,Pro27,Arg35]-h-amylin (peptide)
peptide: K([γGlu-γGlu-C20 diacid])CNTATCATQRLADFLRHSSPNFGAIPSSTNVGSRTY-NH2
modifications: disulfide 2-7; N-terminus assumed
SMILES: CC[C@H](C)[C@H](NC(=O)[C@H](C)NC(=O)CNC(=O)[C@H](Cc1ccccc1)NC(=O)[C@H](CC(N)=O)NC(=O)[C@@H]1CCCN1C(=O)[C@H](CO)NC(=O)[C@H](CO)NC(=O)[C@H](Cc1c[nH]cn1)NC(=O)[C@H](CCCNC(=N)N)NC(=O)[C@H](CC(C)C)NC(=O)[C@H](Cc1ccccc1)NC(=O)[C@H](CC(=O)O)NC(=O)[C@H](C)NC(=O)[C@H](CC(C)C)NC(=O)[C@H](CCCNC(=N)N)NC(=O)[C@H](CCC(N)=O)NC(=O)[C@@H](NC(=O)[C@H](C)NC(=O)[C@@H]1CSSC[C@H](NC(=O)[C@@H](N)CCCCNC(=O)CC[C@H](NC(=O)CC[C@H](NC(=O)CCCCCCCCCCCCCCCCCCC(=O)O)C(=O)O)C(=O)O)C(=O)N[C@@H](CC(N)=O)C(=O)N[C@@H]([C@@H](C)O)C(=O)N[C@@H](C)C(=O)N[C@@H]([C@@H](C)O)C(=O)N1)[C@@H](C)O)C(=O)N1CCC[C@H]1C(=O)N[C@@H](CO)C(=O)N[C@@H](CO)C(=O)N[C@H](C(=O)N[C@@H](CC(N)=O)C(=O)N[C@H](C(=O)NCC(=O)N[C@@H](CO)C(=O)N[C@@H](CCCNC(=N)N)C(=O)N[C@H](C(=O)N[C@@H](Cc1ccc(O)cc1)C(N)=O)[C@@H](C)O)C(C)C)[C@@H](C)O
notes: analogue of human amylin; also called compound 52
B6: N^ε1-[(4S)-4-carboxy-4-[[(4S)-4-carboxy-4-(19-carboxynonadecanoylamino)butanoyl]amino]butanoyl]-[Asp14,Arg17,Pro21,Pro27,Asp35]-h-amylin (peptide)
peptide: K([γGlu-γGlu-C20 diacid])CNTATCATQRLADFLRHSSPNFGAIPSSTNVGSDTY-NH2
modifications: disulfide 2-7; N-terminus assumed
SMILES: CC[C@H](C)[C@H](NC(=O)[C@H](C)NC(=O)CNC(=O)[C@H](Cc1ccccc1)NC(=O)[C@H](CC(N)=O)NC(=O)[C@@H]1CCCN1C(=O)[C@H](CO)NC(=O)[C@H](CO)NC(=O)[C@H](Cc1c[nH]cn1)NC(=O)[C@H](CCCNC(=N)N)NC(=O)[C@H](CC(C)C)NC(=O)[C@H](Cc1ccccc1)NC(=O)[C@H](CC(=O)O)NC(=O)[C@H](C)NC(=O)[C@H](CC(C)C)NC(=O)[C@H](CCCNC(=N)N)NC(=O)[C@H](CCC(N)=O)NC(=O)[C@@H](NC(=O)[C@H](C)NC(=O)[C@@H]1CSSC[C@H](NC(=O)[C@@H](N)CCCCNC(=O)CC[C@H](NC(=O)CC[C@H](NC(=O)CCCCCCCCCCCCCCCCCCC(=O)O)C(=O)O)C(=O)O)C(=O)N[C@@H](CC(N)=O)C(=O)N[C@@H]([C@@H](C)O)C(=O)N[C@@H](C)C(=O)N[C@@H]([C@@H](C)O)C(=O)N1)[C@@H](C)O)C(=O)N1CCC[C@H]1C(=O)N[C@@H](CO)C(=O)N[C@@H](CO)C(=O)N[C@H](C(=O)N[C@@H](CC(N)=O)C(=O)N[C@H](C(=O)NCC(=O)N[C@@H](CO)C(=O)N[C@@H](CC(=O)O)C(=O)N[C@H](C(=O)N[C@@H](Cc1ccc(O)cc1)C(N)=O)[C@@H](C)O)C(C)C)[C@@H](C)O
notes: analogue of human amylin; also called compound 2

Numbered stars: 1 amine (or outer) side, 2 acyl side, 3 side chain; on linkers, the order of the positions; unused ones are H or OH. Bridge positions count the residues as written; N and C are the ends. Side chains are listed from the residue outwards. Ends that are not written are not given here. * marks the point of attachment. C20 diacid = O=C(O)CCCCCCCCCCCCCCCCCCC(=O)*; γGlu = O=C(O)[C@H](CCC(=O)[*:2])N[*:1]; AEEA = NCCOCCOCC(=O)O

We go through six molecules from patent US20140087995A1 (published 2014).

The target in this assay is T1, human calcitonin receptor. As to the kind of experiment: cell-based or functional assay.
Consider B1, for which the “hCTR funct. EC50” value turned out to be 4.75 nM.
Still for that read-out and setting: to B2 belongs 0.899 nM.
As for B3, the “hCTR funct. EC50” value is 4.35 nM.
Regarding B4, the “Ratio hCT/hAmylin funct.” value amounted to 12 and the “hCTR funct. EC50” value was found to be 2.7 nM.
For B5, the “hCTR funct. EC50” value turned out to be 14.1 nM.
With B6, the “hCTR funct. EC50” value came to 3 nM.
